Numbered stars: 1 amine (or outer) side, 2 acyl side, 3 side chain; on linkers, the order of the positions; unused ones are H or OH. Bridge positions count the residues as written; N and C are the ends. Square brackets hold non-standard residues; d marks the D form. Ends that are not written are not given here. * marks the point of attachment. (Me)R = N(5)-methyl-L-arginine, CN(CCC[C@H](N[*:1])C(=O)[*:2])C(=N)N; Oic = O=C(O)[C@@H]1C[C@@H]2CCCC[C@@H]2N1; Cyclopentanecarbonyl = O=C(C1CCCC1)*; tBuAla = CC(C)(C)C[C@H](N)C(=O)O; Pen = CC(C)(S)[C@H](N)C(=O)O; NMeC = CN[C@@H](CS)C(=O)O; Orn = NCCC[C@H](N)C(=O)O; PEG2 = NCCOCCOCCC(=O)O; Sar = CNCC(=O)O
T1: recombinant human MASP1 active protease (amino acids 297-699, C-terminal His Tag) (human, UniProt P48740 297-699)
T1 sequence: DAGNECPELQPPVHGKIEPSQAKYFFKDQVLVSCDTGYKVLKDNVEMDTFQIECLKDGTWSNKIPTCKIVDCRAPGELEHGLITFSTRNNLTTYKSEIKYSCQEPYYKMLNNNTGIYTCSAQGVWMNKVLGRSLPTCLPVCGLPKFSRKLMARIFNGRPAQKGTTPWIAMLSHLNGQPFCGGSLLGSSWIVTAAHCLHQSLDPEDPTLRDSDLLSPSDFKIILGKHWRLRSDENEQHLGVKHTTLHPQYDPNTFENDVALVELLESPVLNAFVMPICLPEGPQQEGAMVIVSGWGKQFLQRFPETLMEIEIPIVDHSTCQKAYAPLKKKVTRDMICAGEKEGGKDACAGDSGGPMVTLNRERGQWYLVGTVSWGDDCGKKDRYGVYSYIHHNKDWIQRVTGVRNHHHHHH

B1: Example 402: ((N-Me)G)-I-(Pen)+SRSLPPIC+IPD-OH (peptide)
peptide: [Sar]I[Pen]SRSLPPICIPD-OH
modifications: disulfide 3-11; N-terminus assumed
SMILES: CC[C@H](C)[C@H](NC(=O)CNC)C(=O)N[C@@H]1C(=O)N[C@@H](CO)C(=O)N[C@@H](CCCNC(=N)N)C(=O)N[C@@H](CO)C(=O)N[C@@H](CC(C)C)C(=O)N2CCC[C@H]2C(=O)N2CCC[C@H]2C(=O)N[C@@H]([C@@H](C)CC)C(=O)N[C@H](C(=O)N[C@H](C(=O)N2CCC[C@H]2C(=O)N[C@@H](CC(=O)O)C(=O)O)[C@@H](C)CC)CSSC1(C)C
B2: Example 405: ((N-Me)G)-(Orn)-(Orn)-(Orn)-IC+SRSLP-(Oic)-I-(Pen)+IP-NH2 (peptide)
peptide: [Sar][Orn][Orn][Orn]ICSRSLP[Oic]I[Pen]IP-NH2
modifications: disulfide 6-14; N-terminus assumed
SMILES: CC[C@H](C)[C@H](NC(=O)[C@H](CCCN)NC(=O)[C@H](CCCN)NC(=O)[C@H](CCCN)NC(=O)CNC)C(=O)N[C@H]1CSSC(C)(C)[C@@H](C(=O)N[C@H](C(=O)N2CCC[C@H]2C(N)=O)[C@@H](C)CC)NC(=O)[C@H]([C@@H](C)CC)NC(=O)[C@@H]2C[C@@H]3CCCC[C@@H]3N2C(=O)[C@@H]2CCCN2C(=O)[C@H](CC(C)C)NC(=O)[C@H](CO)NC(=O)[C@H](CCCNC(=N)N)NC(=O)[C@H](CO)NC1=O
B3: Example 399: (Orn)-AIC+SRS-((tBu)A)-PPI-((N-Me)C)+IPD-NH2 (peptide)
peptide: [Orn]AICSRS[tBuAla]PPI[NMeC]IPD-NH2
modifications: disulfide 4-12; N-terminus assumed
SMILES: CC[C@H](C)[C@H](NC(=O)[C@H](C)NC(=O)[C@@H](N)CCCN)C(=O)N[C@H]1CSSC[C@@H](C(=O)N[C@H](C(=O)N2CCC[C@H]2C(=O)N[C@@H](CC(=O)O)C(N)=O)[C@@H](C)CC)N(C)C(=O)[C@H]([C@@H](C)CC)NC(=O)[C@@H]2CCCN2C(=O)[C@@H]2CCCN2C(=O)[C@H](CC(C)(C)C)NC(=O)[C@H](CO)NC(=O)[C@H](CCCNC(=N)N)NC(=O)[C@H](CO)NC1=O
B4: Example 408: (Cyclopentanecarboxylic acid)-IC+SRS-((tBu)A)-PPI-((N-Me)C)+I-NH2 (peptide)
peptide: Cyclopentanecarbonyl-ICSRS[tBuAla]PPI[NMeC]I-NH2
modifications: disulfide 2-10
SMILES: CC[C@H](C)[C@H](NC(=O)[C@@H]1CSSC[C@H](NC(=O)[C@@H](NC(=O)C2CCCC2)[C@@H](C)CC)C(=O)N[C@@H](CO)C(=O)N[C@@H](CCCNC(=N)N)C(=O)N[C@@H](CO)C(=O)N[C@@H](CC(C)(C)C)C(=O)N2CCC[C@H]2C(=O)N2CCC[C@H]2C(=O)N[C@@H]([C@@H](C)CC)C(=O)N1C)C(N)=O
B5: Example 403: AIC+S-((Me)R)-S-((tBu)A)-PPI-(Pen)+IPD-NH2 (peptide)
peptide: AICS[(Me)R]S[tBuAla]PPI[Pen]IPD-NH2
modifications: disulfide 3-11; N-terminus assumed
SMILES: CC[C@H](C)[C@H](NC(=O)[C@H](C)N)C(=O)N[C@H]1CSSC(C)(C)[C@@H](C(=O)N[C@H](C(=O)N2CCC[C@H]2C(=O)N[C@@H](CC(=O)O)C(N)=O)[C@@H](C)CC)NC(=O)[C@H]([C@@H](C)CC)NC(=O)[C@@H]2CCCN2C(=O)[C@@H]2CCCN2C(=O)[C@H](CC(C)(C)C)NC(=O)[C@H](CO)NC(=O)[C@H](CCCN(C)C(=N)N)NC(=O)[C@H](CO)NC1=O
B6: Example 409: (PEG1(10 atoms))-GIC+SRSLPPIC+IPD-OH (peptide)
peptide: [PEG2]GICSRSLPPICIPD-OH
modifications: disulfide 4-12; N-terminus assumed
SMILES: CC[C@H](C)[C@H](NC(=O)CNC(=O)CCOCCOCCN)C(=O)N[C@H]1CSSC[C@@H](C(=O)N[C@H](C(=O)N2CCC[C@H]2C(=O)N[C@@H](CC(=O)O)C(=O)O)[C@@H](C)CC)NC(=O)[C@H]([C@@H](C)CC)NC(=O)[C@@H]2CCCN2C(=O)[C@@H]2CCCN2C(=O)[C@H](CC(C)C)NC(=O)[C@H](CO)NC(=O)[C@H](CCCNC(=N)N)NC(=O)[C@H](CO)NC1=O

Each binder was assayed against recombinant human MASP2 active protease (amino acids 297-686, C-terminal His Tag) (human, UniProt O00187 297-686) (assay: cell-based or functional assay).
recombinant human MASP2 active protease (amino acids 297-686, C-terminal His Tag), sequence (O00187 other isoform, or with tags, fused parts or gaps limits assumed): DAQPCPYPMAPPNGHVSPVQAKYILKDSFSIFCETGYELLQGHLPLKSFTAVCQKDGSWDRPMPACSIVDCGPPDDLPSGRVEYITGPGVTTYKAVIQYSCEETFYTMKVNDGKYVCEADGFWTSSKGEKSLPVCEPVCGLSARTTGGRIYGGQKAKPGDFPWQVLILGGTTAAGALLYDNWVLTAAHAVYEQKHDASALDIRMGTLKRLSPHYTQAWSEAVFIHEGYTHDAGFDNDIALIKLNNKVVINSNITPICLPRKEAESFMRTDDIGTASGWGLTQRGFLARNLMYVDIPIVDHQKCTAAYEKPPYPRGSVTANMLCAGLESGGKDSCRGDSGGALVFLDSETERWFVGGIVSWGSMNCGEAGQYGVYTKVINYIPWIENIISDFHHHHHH

human MASP2 IC50 [nM] | Binder
2100 | B1
980 | B2
520 | B3
32 | B4
740 | B5
570 | B6

The binders below were run against T1, recombinant human MASP1 active protease … (assay: cell-based or functional assay).

human MASP1 IC50 [nM] | Binder
58 | B1
63 | B2
55 | B3
69 | B4
59 | B5
71 | B6

— patent US20210246166A1 (Bayer, published 2021)
